From article PMC3354570 (Structure(London, England:1993), 2012)

Target: the molecule itself
Experiment: AUC

B1: human apolipoprotein A-IV core domain, residues 64-335 (domain or fragment, UniProt P06727 84-355, looked up)
chain: ATELHERLAKDSEKLKEEIGKELEELRARLLPHANEVSQKIGDNLRELQQRLEPYADQLRTQVSTQAEQLRRQLTPYAQRMERVLRENADSLQASLRPHADELKAKIDQNVEELKGRLTPYADEFKVKIDQTVEELRRSLAPYAQDTQEKLNHQLEGLTFQMKKNAEELKARISASAEELRQRLAPLAEDVRGNLRGNTEGLQKSLAELGGHLDQQVEEFRRRVEPYGENFNKALVQQMEQLRQKLGPHAGDVEGHLSFLEKDLRDKVNSFF
- stoichiometry N: 2
